According to publication PMC3975076, “High-throughput binding characterization of RNA aptamer selections using a microplate-based multiplex microcolumn device”:

Tests used:
GFP = GFP (UniProt P42212); test: affinity microcolumn + qPCR; conditions: GFP 0.6 ug/uL resin; serial; Binding buffer (composition, pH and temperature not in material) with 10 ug/mL yeast tRNA; serial: 4.75 nM N70 library + 50 pM each aptamer/BBS, 1 mL, protein …
UBLCP1 = biological target: T1, UBLCP1 (UniProt Q8WVY7); test: affinity microcolumn + qPCR; conditions: value is average over all 7 other targets; Binding buffer (composition, pH and temperature not in material) with 10 ug/mL yeast tRNA; serial: 4.75 nM N70 library + 50 pM each aptamer/BBS, 1 mL, protein …
T1 sequence: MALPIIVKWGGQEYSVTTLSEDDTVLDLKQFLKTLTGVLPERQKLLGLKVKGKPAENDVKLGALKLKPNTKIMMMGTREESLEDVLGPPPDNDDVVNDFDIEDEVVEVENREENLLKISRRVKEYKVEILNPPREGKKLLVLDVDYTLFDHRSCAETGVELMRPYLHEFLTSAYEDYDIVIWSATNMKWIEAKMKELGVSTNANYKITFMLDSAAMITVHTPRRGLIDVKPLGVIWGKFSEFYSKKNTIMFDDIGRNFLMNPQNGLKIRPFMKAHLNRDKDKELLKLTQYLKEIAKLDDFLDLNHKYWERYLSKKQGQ

NELF-E = biological target: T2, NELF-E (Drosophila, UniProt P92204 1-280); test: affinity microcolumn + qPCR; NELF-E 0.6 ug/uL resin; serial; Binding buffer (composition, pH and temperature not in material) with 10 ug/mL yeast tRNA; serial: 4.75 nM N70 library + 50 pM each aptamer/BBS, 1 mL, protein 0.6 ug/uL resin; wash 3 mL at 300 uL/min; conditions: protein: recombinant; tags: His6
T2 sequence: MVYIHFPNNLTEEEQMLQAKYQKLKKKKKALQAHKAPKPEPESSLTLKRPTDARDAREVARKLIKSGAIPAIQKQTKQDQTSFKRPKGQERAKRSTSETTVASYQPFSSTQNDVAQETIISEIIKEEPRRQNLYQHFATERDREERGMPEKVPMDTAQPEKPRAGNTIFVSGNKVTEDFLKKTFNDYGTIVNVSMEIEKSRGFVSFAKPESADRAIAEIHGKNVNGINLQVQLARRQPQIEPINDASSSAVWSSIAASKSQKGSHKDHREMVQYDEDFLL

AGCUUCUGGACUGCGAUGGGAGCACGAAACGUCGUGGCGCAAUUGGGUGGGGAAAGUCCUUAAAAGAGGGCCACCACAGAAGCU [GFPapt (AP3-1)]
binding signal (fold enrichment over N70 library) (GFP): 750 | binding signal (fold enrichment over N70 library) (UBLCP1): 0.6

GGGAAUGGAUCCACAUCUACGAAUUCAAUCAAGUCCCCAGACUCAGCAACACUGGACAGCGAUAUGCAGAUAACCAAGACCAAUUCACUCCAGUUCACUGCAGACUUGACGAAGCUU [HSFapt]
binding signal (fold enrichment over N70 library) (UBLCP1): 2

GGGAAUGGAUCCACAUCUACGAAUUCCCAACGACUGCCGAGCGAGAUUACGCUUGAGCGCCCCACUGAGGAUGCCCACGGGCGAUUGGGGCACGGCUUCACUGCAGACUUGACGAAGCUU [NELFapt]
binding signal (fold enrichment over N70 library) (UBLCP1): 1.6

B1: NELFapt (structured_RNA)
RNA: GGGAAUGGAUCCACAUCUACGAAUUCCCAACGACUGCCGAGCGAGAUUACGCUUGAGCGCCCCACUGAGGAUGCCCACGGGCGAUUGGGGCACGGCUUCACUGCAGACUUGACGAAGCUU
binding signal (NELF-E): 262 fold enrichment over N70 library
